# Data: patent publication US20090311253A1 (AbbVie / Abbott, published 2009)
# B1: DVD124 (bispecific antibody, human IgG1, kappa)
# heavy: not shown
# light: DIQMTQSPSSLSASVGDRVTITCSASQDISNYLNWYQQKPGKAPKVLIYFTSSLHSGVPSRFSGSGSGTDFTLTISSLQPEDFATYYCQQYSTVPWTFGQGTKVEIKRTVAAPEIVLTQSPDFQSVTPKEKVTITCRASQSIGSSLHWYQQKPDQSPKLLIKYASQSFSGVPSRFSGSGSGTDFTLTINSLEAEDAAAYYCHQSSSLPFTFGPGTKVDIKRTVAAPSVFIFPPSDEQLKSGTASVVCLLNNFYPREAKVQWKVDNALQSGNSQESVTEQDSKDSTYSLSSTLTLSKADYEKHKVYACEVTHQGLSSPVTKSFNRGEC
# notes: outer AB014, inner AB032; vectors V1, V2
# B2: AB001 (antibody, human IgG1, kappa, V domains shown)
# VH: QVQLQQPGAELVKPGASVKMSCKASGYTFTSYNMHWVKQTPGRGLEWIGAIYPGNGDTSYNQKFKGKATLTADKSSSTAYMQLSSLTSEDSAVYYCARSTYYGGDWYFNVWGAGTTVTVSA
# VL: QIVLSQSPAILSPSPGEKVTMTCRASSSVSYIHWFQQKPGSSPKPWIYATSNLASGVPVRFSGSGSGTSYSLTISRVEAEDAATYYCQQWTSNPPTFGGGTKLEIKR
# notes: vectors V1 (wild type hIgG1 constant) and V2 (kappa); also called anti-CD20 parent antibody
# B3: AB020 (antibody, human IgG1, kappa, V domains shown)
# VH: QVQLQESGPGLVKPSETLSLTCTVSGFSLIGYDLNWIRQPPGKGLEWIGIIWGDGTTDYNSAVKSRVTISKDTSKNQFSLKLSSVTAADTAVYYCARGGYWYATSYYFDYWGQGTLVTVSS
# VL: DIQMTQSPSSLSASVGDRVTITCRASQSISNNLNWYQQKPGKAPKLLIYYTSRFHSGVPSRFSGSGSGTDFTFTISSLQPEDIATYYCQQEHTLPYTFGQGTKLEIKR
# notes: vectors V1 and V2; also called anti-NGF parent antibody
# B4: DVD165 (bispecific antibody, human IgG1, kappa)
# heavy: not shown
# light: QIVLSQSPAILSPSPGEKVTMTCRASSSVSYIHWFQQKPGSSPKPWIYATSNLASGVPVRFSGSGSGTSYSLTISRVEAEDAATYYCQQWTSNPPTFGGGTKLEIKRTVAAPEIVLTQSPGTLSLSPGERATLSCRASQSVRGRYLAWYQQKPGQAPRLLIYGASSRATGIPDRFSGSGSGTDFTLTISRLEPEDFAVFYCQQYGSSPRTFGQGTKVEIKRTVAAPSVFIFPPSDEQLKSGTASVVCLLNNFYPREAKVQWKVDNALQSGNSQESVTEQDSKDSTYSLSSTLTLSKADYEKHKVYACEVTHQGLSSPVTKSFNRGEC
# notes: vectors V1, V2; also called CD-20 and RANKL DVD-Ig
# B5: AB023 (antibody, human IgG1, kappa, V domains shown)
# VH: EVQLVESGGGLVQPANSLKLSCAASGFTFSDYAMAWVRQSPKKGLEWVATIIYDGSSTYYRDSVKGRFTISRDNAKSTLYLQMDSLRSEDTATYYCATGLGIATDYFDYWGQGVLVTVSS
# VL: DIRMTQSPASLSASLGETVNIECLASEDIYSDLAWYQQKPGKSPQLLIYNANSLQNGVPSRFSGSGSGTQYSLKINSLQSEDVATYFCQQYNNYPPTFGGGTKLELKR
# notes: vectors V1 and V2; also called anti-DKK parent antibody
# B6: AB022 (antibody, human IgG1, kappa, V domains shown)
# VH: EVQLQQSGPELVTPGASVKISCKASGYTFTDHYMSWVKQSHGKSLEWIGDINPYSGETTYNQKFKGTATLTVDKSSSIAYMEIRGLTSEDSAVYYCARDDYDASPFAYWGQGTLVTVSA
# VL: DVQMIQSPSSLSASLGDIVTMTCQASQGTSINLNWFQQKPGKAPKLLIYGSSNLEDGVPSRFSGSRYGTDFTLTISSLEDEDLATYFCLQHSYLPYTFGGGTKLEIKR
# notes: vectors V1 and V2
# Assays:
# Recombinant Human VEGF [1] = target: T1, Recombinant Human VEGF (human, UniProt P15692-4 27-191); assay: Biacore SPR
# T1 construct: also called VEGF165
# Experimental: (§1) The BIACORE assay (Biacore, Inc, Piscataway, N.J.) determines the affinity of antibodies or DVD-Ig with kinetic measurements of on-rate and off-rate constants. Binding of antibodies or DVD-Ig to a target antigen (for example, a purified recombinant target antigen) is determined by surface plasmon resonance-based measurements with a BiacoreR 1000 or 3000 instrument (Biacore® AB, Uppsala, Sweden) using running HBS-EP (10 mM HEPES [pH 7.4], 150 mM NaCl, 3 mM EDTA, and 0.005% surfactant P20) at 25° C. All chemicals are obtained from Biacore® AB (Uppsala, Sweden) or otherwise from a different source as described in the text. For example, approximately 5000 RU of goat anti-mouse IgG, (Fcγ), fragment specific polyclonal antibody (Pierce Biotechnology Inc, Rockford, Ill.) diluted in 10 mM sodium acetate (pH 4.5) is directly immobilized across a CM5 research grade biosensor chip using a standard amine coupling kit according to manufacturer's instructions and procedures at 25 μg/ml. Unreacted moieties on the biosensor surface are blocked with ethanolamine. Modified carboxymethyl dextran surface in flowcell 2 and 4 is used as a reaction surface. Unmodified carboxymethyl dextran without goat anti-mouse IgG in flow cell 1 and 3 is used as the reference surface. For kinetic analysis, rate equations derived from the 1:1 Langmuir binding model are fitted simultaneously to association and dissociation phases of all eight injections (using global fit analysis) with the use of Biaevaluation 4.0.1 software. Purified antibodies or DVD-Ig are diluted in HEPES-buffered saline for capture across goat anti-mouse IgG specific reaction surfaces. Antibodies or DVD-Ig to be captured as a ligand (25 μg/ml) are injected over reaction matrices at a flow rate of 5 μl/min. The association and dissociation rate constants, kₒₙ (M⁻¹s⁻¹) and koff (s⁻¹) are determined under a continuous flow rate of 25 μl/min. Rate constants are derived by making kinetic binding measurements at different antigen concentrations ranging from […]. The equilibrium dissociation constant (M) of the reaction between antibodies or DVD-Igs and the target antigen is then calculated from the kinetic rate constants by the following formula: KD=koff/kₒₙ. Binding is recorded as a function of time and kinetic rate constants are calculated.
# Recombinant Human IL-1β [2] = target: T2, Recombinant Human IL-1β (human, UniProt P01584 117-269); assay: Biacore SPR
# T2 construct: also called IL-1b; IL-1B
# Experimental: as §1
# Recombinant Human VEGF [3] = target: T1, Recombinant Human VEGF; assay: direct bind ELISA
# Experimental: (§2) Enzyme Linked Immunosorbent Assays to screen for antibodies that bind a desired target antigen were performed as follows. High bind ELISA plates (Corning Costar # 3369, Acton, Mass.) were coated with 100 μL/well of 10 μg/ml of desired target antigen (R&D Systems, Minneapolis, Minn.) or desired target antigen extra-cellular domain/FC fusion protein (R&D Systems, Minneapolis, Minn.) or monoclonal mouse anti-polyhistidine antibody (R&D Systems # MAB050, Minneapolis, Minn.) in phosphate buffered saline (10×PBS, Abbott Bioresearch Center, Media Prep# MPS-073, Worcester, Mass.) overnight at 4° C. Plates were washed four times with PBS containing 0.02% Tween 20. Plates were blocked by the addition of 300 μL/well blocking solution (non-fat dry milk powder, various retail suppliers, diluted to 2% in PBS) for ½ hour at room temperature. Plates were washed four times after blocking with PBS containing 0.02% Tween 20.
# (§3) Plates were washed 4 times with PBS containing 0.02% Tween 20.
# (§4) One hundred microliters of enhanced TMB solution (Neogen Corp. #308177, K Blue, Lexington, Ky.) was added to each well and incubated for 10 minutes at room temperature. The reaction was stopped by the addition of 50 μL 1N sulphuric acid. Plates were read spectrophotometrically at a wavelength of 450 nm.
# Recombinant Human IL-1β [4] = target: T2, Recombinant Human IL-1β; assay: direct bind ELISA
# Experimental: as §2, §3, §4
# Recombinant Human IL-1β [5] = target: T2, Recombinant Human IL-1β; assay: cell-based or functional assay
# CD20 on cells = target: T3, CD20 on cells (UniProt P11836 1-297, limits assumed); assay: flow cytometry on cells, 2 µg/mL
# T3 construct: whole, on cells
# T3 sequence (looked up): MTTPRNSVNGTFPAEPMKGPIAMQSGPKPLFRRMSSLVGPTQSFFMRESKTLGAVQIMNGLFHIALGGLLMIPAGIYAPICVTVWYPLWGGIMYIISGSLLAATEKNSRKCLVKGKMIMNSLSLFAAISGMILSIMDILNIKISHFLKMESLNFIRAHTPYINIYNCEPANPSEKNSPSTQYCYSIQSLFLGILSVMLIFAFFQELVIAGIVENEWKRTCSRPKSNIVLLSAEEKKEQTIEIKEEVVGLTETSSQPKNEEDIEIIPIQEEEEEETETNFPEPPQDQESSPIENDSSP
# Experimental: Stable cell lines overexpressing a cell-surface antigen of interest or human tumor cell lines were harvested from tissue culture flasks and resuspended in phosphate buffered saline (PBS) containing 5% fetal bovine serum (PBS/FBS). Prior to staining, human tumor cells were incubated on ice with (100 μl) human IgG at 5 μg/ml in PBS/FCS. 1−5×10⁵ cells were incubated with antibody or DVD-Ig (2 μg/mL) in PBS/FBS for 30-60 minutes on ice. […] After 30 minutes incubation on ice, cells were washed twice and resuspended in PBS/FBS. Fluorescence was measured using a Becton Dickinson FACSCalibur (Becton Dickinson, San Jose, Calif.).
# The geometric mean is the n root of the multiplication product of n fluorescent signals (a1×a2×a3 . . . an). With log-transformed data the geometric mean is used to normalize the weighting of the data distribution.
# Recombinant Human β-NGF [6] = target: T4, Recombinant Human β-NGF (human, UniProt P01138 122-241); assay: Biacore SPR
# Experimental: as §1
# Recombinant Human β-NGF [7] = target: T4, Recombinant Human β-NGF; assay: direct bind ELISA
# Experimental: as §2, §3, §4
# [8] = target: T5, Recombinant Human TRANCE/RANKL/TNFSF 11 (human, UniProt O14788 69-317); assay: direct bind ELISA
# T5 construct: extracellular domain
# T5 sequence (looked up): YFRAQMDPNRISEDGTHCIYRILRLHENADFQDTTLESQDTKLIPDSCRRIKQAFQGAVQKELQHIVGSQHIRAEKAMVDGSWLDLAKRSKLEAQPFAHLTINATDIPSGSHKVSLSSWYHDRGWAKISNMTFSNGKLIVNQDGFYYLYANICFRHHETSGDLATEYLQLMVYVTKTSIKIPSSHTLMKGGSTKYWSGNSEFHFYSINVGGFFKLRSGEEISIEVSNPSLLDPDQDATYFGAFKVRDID
# Experimental: as §2, §3, §4
# Recombinant Human Dkk-1 [9] = target: T6, Recombinant Human Dkk-1 (human, UniProt O94907 32-266); assay: Biacore SPR
# T6 construct: also called DKK-1/His
# T6 sequence (looked up): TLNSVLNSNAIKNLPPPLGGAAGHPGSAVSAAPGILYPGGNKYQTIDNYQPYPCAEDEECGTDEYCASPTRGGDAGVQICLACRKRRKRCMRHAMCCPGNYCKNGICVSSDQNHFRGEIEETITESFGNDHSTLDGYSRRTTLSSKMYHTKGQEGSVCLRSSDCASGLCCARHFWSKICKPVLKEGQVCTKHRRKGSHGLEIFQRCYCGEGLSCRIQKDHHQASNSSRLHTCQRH
# Experimental: as §1
# Recombinant Human Dkk-1 [10] = target: T6, Recombinant Human Dkk-1; assay: direct bind ELISA
# Experimental: as §2, §3, §4
# Recombinant Human SOST [11] = target: T7, Recombinant Human SOST (human, UniProt Q9BQB4 24-213); assay: Biacore SPR
# T7 construct: also called SOST/His; Sclerostin
# T7 sequence (looked up): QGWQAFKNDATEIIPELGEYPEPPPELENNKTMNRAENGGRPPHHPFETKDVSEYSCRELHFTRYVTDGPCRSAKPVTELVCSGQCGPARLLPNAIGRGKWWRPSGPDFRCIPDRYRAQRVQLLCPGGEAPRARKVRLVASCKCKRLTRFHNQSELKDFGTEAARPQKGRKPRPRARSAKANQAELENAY
# Experimental: as §1
# Recombinant Human SOST [12] = target: T7, Recombinant Human SOST; assay: direct bind ELISA
# Experimental: as §2, §3, §4
# T4 sequence (P01138 122-241 limits assumed): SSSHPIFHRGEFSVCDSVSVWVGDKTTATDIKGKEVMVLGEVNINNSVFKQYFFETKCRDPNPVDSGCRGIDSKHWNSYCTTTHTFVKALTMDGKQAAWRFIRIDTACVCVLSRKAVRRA
binder,measurement,setting,value
B1,Kd,Recombinant Human VEGF [1],0.0467 nM
same,koff,Recombinant Human VEGF [1],4.03e-05 s⁻¹
same,kon,Recombinant Human VEGF [1],863000 M⁻¹ s⁻¹
same,Kd,Recombinant Human IL-1β [2],1.41 nM
same,koff,Recombinant Human IL-1β [2],9.32e-05 s⁻¹
same,kon,Recombinant Human IL-1β [2],66000 M⁻¹ s⁻¹
same,EC50,Recombinant Human VEGF [3],3.49 nM
same,EC50,Recombinant Human IL-1β [4],459 nM
same,"IL-1β Neutralization Assay EC50 (MRC5 cells, hIL-8)",Recombinant Human IL-1β [5],3.63 nM
B2,FACS Geometric Mean,CD20 on cells,1350
B3,Kd,Recombinant Human β-NGF [6],< 0.000926 nM
same,koff,Recombinant Human β-NGF [6],< 1e-06 s⁻¹
same,kon,Recombinant Human β-NGF [6],1.08e+06 M⁻¹ s⁻¹
same,EC50,Recombinant Human β-NGF [7],9 nM
B4,FACS Geometric Mean,CD20 on cells,1890
same,EC50,[8],0.32 nM
B5,Kd,Recombinant Human Dkk-1 [9],< 0.0087 nM
same,koff,Recombinant Human Dkk-1 [9],8.7e-05 s⁻¹
same,kon,Recombinant Human Dkk-1 [9],> 1e+07 M⁻¹ s⁻¹
same,EC50,Recombinant Human Dkk-1 [10],6.83 nM
B6,Kd,Recombinant Human SOST [11],0.0379 nM
same,koff,Recombinant Human SOST [11],2.44e-05 s⁻¹
same,kon,Recombinant Human SOST [11],642000 M⁻¹ s⁻¹
same,EC50,Recombinant Human SOST [12],0.66 nM
